Where two headings read alike, the source gives them in different places.
B1: 2587 Fab (Fab, V domains shown)
VH: QVQLVQSGAEVRKPGASVKVSCKASGYSFTSYILNWVRQATGQGLEWMGWMNPDSNNTEYAQKFQGRVTITRDTSISTVYMELSGLRSEDTAVYYCARHSFKSNTGFDYWGQGTQVTVSS
VL: SYELSQPPSVSVSAGQTASITCSGDKLGGKYGYWYQQRPGQSPILVIYQDSKRPSGIPERFSGSNSGNTATLTISGTQAMDEADYYCQAWDISTNWVFGGGTKLTVL
B2: 2586 Fab (Fab, V domains shown)
VH: EVHLVESGGGLVQPGGSLRLSCAASGFTFSDHYMDWVRQAPGKGLEWVGRIRNKANSYTTDYAASVKGRFTILRDDSKNSLYLQMNSLKTEDAAVYYCVRVGGLGERGDYYYYYMDVWGKGTTVTVSS
VL: SYELTQPPSVSFSPGQTARITCSGDALSKQYTYWYQQKPGQAPVLVIYKDSERPSGIPERFSGSSSGTTVTLTISGVQAEDEADYYCQSADSSGPYQVLFGGGTKLTVL
B3: 2544 Fab (Fab, V domains shown)
VH: EVQLVESGGGLVQPGGSLRLSCVASGFTFSNYNMNWVRQAPGKGLEWLSYISSSSGTIYYADSVKGRFTISRDNAKNSMYLQMNSLRAEDTAVYYCVRVEYYYGSSGYYYDFDSWGQGTLVTVSS
VL: DIVMTQSPLSLPVTPGEPASISCRSSQSLLHNGYNYLDWYLQKPGQSPQLLIYLGSNRASGVPDRFSGSGSGTDFTLKISRVEAEDVGVYYCMQTLQPFTFGQGTRLEIK
B4: 2530 Fab (Fab, V domains shown)
VH: QVQLQESGPGLVKPSETLSLTCTVSGDSMSSYYWSWIRQPAGKGLEWIGRISTSGSTNYNPSLKSRVTMSVDTSNNHFSMRLNSVTAADTAVYYCACSGSYSFFDYWGQGTLVTVSS
VL: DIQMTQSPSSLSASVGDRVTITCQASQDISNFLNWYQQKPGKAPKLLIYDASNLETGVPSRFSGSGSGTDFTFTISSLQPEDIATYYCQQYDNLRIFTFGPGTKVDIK

Key:
Experiment in all cases: BLI
[1] = target: T1, Recombinant His-tagged Pfs25 (Plasmodium falciparum, UniProt P13829 17-196)
[2] = target: T1, Recombinant His-tagged Pfs25; remark: listed apart in the source
[3] = target: T1, Recombinant His-tagged Pfs25; remark: listed apart in the source

Row | Binder | Kd [1] [nM] | koff [2] [s⁻¹] | Kd [3] [nM]
1 | B1 | 4.6 | 0.0007 | –
2 | B2 | – | 0.00037 | 2.5
3 | B3 | – | 0.00075 | –
4 | B4 | – | 0.0062 | 19.2
